Results as given in US20260209321A1 (SINGAPORE HEALTH SERVICES PTE, published 2026).

Columns and labels:
[1] = biological target: T1, human TRPM4 expressed in transfected HEK 293 cells (human, UniProt Q8TD43 1-1214); test: immunofluorescent staining of HEK 293 cells transfected with human TRPM4; colocalization with WGA (surface TRPM4)
T1 construct: whole, on cells; also called transient receptor potential melastatin 4

Peptide-biotin [2] = biological target: T2, Peptide-biotin; test: SPR Biacore 8K affinity ranking; antibody Fc-captured, Peptide-biotin analyte, 1:1 fit
T2 construct: also called antigen
Method: For affinity ranking, antibodies were captured on the sensor chip through Fc capture method. Peptide-biotin was used as the analyte. The surface was regenerated before the injection of another antibody. The process was repeated until all antibodies are analyzed. The off-rates of antibodies were obtained from fitting the experimental data locally to 1:1 interaction model using the Biacore 8K evaluation software. The antibodies were ranked by their dissociation rate constants (off-rates, kd). Based on the ranking result, the top 3 clones were selected.
Humanized antibodies were generated by replacing the framework regions (FRs) from mouse M4M antibody with counterparts from human, while maintaining the antibody's complementarity-determining regions (CDRs) binding regions. The antibody binding affinity of the chimeric and humanized antibodies was assessed by surface plasmon resonance (SPR) as shown in Table 1. Antibody clone A1 is the chimeric antibody and antibody clones A2-7 are humanized antibodies. Based on the results obtained from SPR, humanized clone A2 has the strongest SPR signal. For affinity ranking, antibodies were captured on the sensor chip through Fc capture method. Peptide-biotin was used as the analyte. The surface was regenerated before the injection of another antibody. The process was repeated until all antibodies are analyzed. The off-rates of antibodies were obtained from fitting the experimental data locally to 1:1 interaction model using the Biacore 8K evaluation software. The antibodies were ranked by their dissociation rate constants (off-rates, kd). Based on the ranking result, the top humanized clones were selected. […] Bolded and underlined amino acids correspond to the back mutation sites in the framework regions.

Peptide-biotin [3] = biological target: T2, Peptide-biotin; test: SPR Biacore 8K, purified IgG Fc-captured, Peptide-biotin analyte, 1:1 fit
Method: The affinity of purified antibody binding to Peptide-biotin was individually determined using a Surface Plasmon Resonance (SPR) biosensor, Biacore 8K (GE Healthcare). Antibodies were captured on the sensor chip through Fc capture method. Peptide-biotin was used as the analyte. The data of dissociation (kd) and association (ka) rate constants were obtained using Biacore 8K evaluation software. The equilibrium dissociation constants (KD) were calculated from the ratio of kd over ka.

T1 sequence (Q8TD43 whole entry): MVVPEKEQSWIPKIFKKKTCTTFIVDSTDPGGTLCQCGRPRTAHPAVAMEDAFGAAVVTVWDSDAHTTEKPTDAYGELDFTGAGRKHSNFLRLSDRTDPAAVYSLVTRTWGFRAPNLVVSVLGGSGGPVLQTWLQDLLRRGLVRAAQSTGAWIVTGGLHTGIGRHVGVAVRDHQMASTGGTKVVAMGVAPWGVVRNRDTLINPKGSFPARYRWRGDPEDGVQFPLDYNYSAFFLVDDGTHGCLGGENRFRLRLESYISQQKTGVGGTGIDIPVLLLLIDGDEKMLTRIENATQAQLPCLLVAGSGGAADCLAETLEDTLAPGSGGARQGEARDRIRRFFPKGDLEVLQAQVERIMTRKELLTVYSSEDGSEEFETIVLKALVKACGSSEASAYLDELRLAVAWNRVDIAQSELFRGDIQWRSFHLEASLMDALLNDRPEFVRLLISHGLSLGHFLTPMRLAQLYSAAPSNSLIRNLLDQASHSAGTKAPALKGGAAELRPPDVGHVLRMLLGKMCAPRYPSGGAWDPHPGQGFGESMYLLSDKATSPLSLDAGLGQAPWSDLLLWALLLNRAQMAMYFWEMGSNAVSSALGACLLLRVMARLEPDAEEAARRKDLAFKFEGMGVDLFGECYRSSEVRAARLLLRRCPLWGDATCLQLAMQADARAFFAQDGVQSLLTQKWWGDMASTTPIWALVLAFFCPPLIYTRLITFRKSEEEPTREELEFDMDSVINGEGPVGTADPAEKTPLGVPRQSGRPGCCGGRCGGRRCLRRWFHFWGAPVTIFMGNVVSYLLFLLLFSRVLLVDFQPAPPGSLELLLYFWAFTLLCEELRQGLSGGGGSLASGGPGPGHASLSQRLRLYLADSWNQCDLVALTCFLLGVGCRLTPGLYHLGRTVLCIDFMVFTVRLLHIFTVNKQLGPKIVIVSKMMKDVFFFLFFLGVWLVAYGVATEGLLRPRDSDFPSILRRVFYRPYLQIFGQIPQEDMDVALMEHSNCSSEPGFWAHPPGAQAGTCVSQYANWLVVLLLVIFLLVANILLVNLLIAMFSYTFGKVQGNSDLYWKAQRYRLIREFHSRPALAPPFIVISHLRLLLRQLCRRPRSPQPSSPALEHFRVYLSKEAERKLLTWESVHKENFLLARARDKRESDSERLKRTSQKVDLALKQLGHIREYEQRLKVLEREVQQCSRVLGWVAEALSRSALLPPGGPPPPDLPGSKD

| Binder | binding result [1] | Kd (Peptide-biotin [2]) | koff (Peptide-biotin [2]) | kon (Peptide-biotin [2]) | Kd (Peptide-biotin [3]) | koff (Peptide-biotin [3]) | kon (Peptide-biotin [3]) |
| --- | --- | --- | --- | --- | --- | --- | --- |
| humanized anti-TRPM4 antibody clone A3 (VH1 + VL2) (antibody, V domains shown, Full-length IgG, IgG1 heavy chain; also called VH1 + VL2 (A3)) VH: QVQLQESGPGLVKPSQTLSLTCTVSGYSITSDYAWNWIRQHPGKGLEWIGYLSYSGVTSYNPSLKGRVTISVDTSKNQFSLKLSSVTAADTAVYYCARKGTYYRYEGSYWYFDVWGQGTTVTVSS VL: DIQMTQSPSSLSASVGDRVTITCHANQNIDVWLSWYQQKPGKAPKLLIYKTSNLHTGVPSRFSGSGSGTDFTLTISSLQPEDIATYYCQQGQSYPLTFGGGTKLEIKR | binds | 9.81 nM | 0.00321 s⁻¹ | 327000 M⁻¹ s⁻¹ | – | – | – |
| humanized anti-TRPM4 antibody VH4 + VL3 (antibody, V domains shown, Full-length IgG) VH: QVQLQESGPGLVKPSQTLSLTCTVSGYSITSDYAWNWIRQHPGKGLQWMGYLSYSGVTSYNPSLKGRITISRDTSKNQFFLKLSSVTAADTAVYYCARKGTYYRYEGSYWYFDVWGQGTTVTVSS VL: DIQMTQSPSSLSASVGDRVTITCHANQNIDVWLSWYQQKPGNAPKLLIYKTSNLHTGVPSRFSGSGSGTDFTFTISSLQPEDIATYYCQQGQSYPLTFGGGTKLEIKR | – | 4.32 nM | 0.00143 s⁻¹ | 332000 M⁻¹ s⁻¹ | – | – | – |
| humanized anti-TRPM4 antibody VH3 + VL1 (antibody, V domains shown, Full-length IgG) VH: QVQLQESGPGLVKPSQTLSLTCTVSGYSITSDYAWNWIRQHPGKGLQWMGYLSYSGVTSYNPSLKGRITISRDTSKNQFSLKLSSVTAADTAVYYCARKGTYYRYEGSYWYFDVWGQGTTVTVSS VL: DIQMTQSPSSLSASVGDRVTITCHANQNIDVWLSWYQQKPGKAPKLLIYKTSNLHTGVPSRFSGSGSGTDFTFTISSLQPEDIATYYCQQGQSYPLTFGGGTKLEIKR | – | 4.36 nM | 0.00149 s⁻¹ | 342000 M⁻¹ s⁻¹ | – | – | – |
| humanized anti-TRPM4 antibody VH4 + VL1 (antibody, V domains shown, Full-length IgG) VH: QVQLQESGPGLVKPSQTLSLTCTVSGYSITSDYAWNWIRQHPGKGLQWMGYLSYSGVTSYNPSLKGRITISRDTSKNQFFLKLSSVTAADTAVYYCARKGTYYRYEGSYWYFDVWGQGTTVTVSS VL: DIQMTQSPSSLSASVGDRVTITCHANQNIDVWLSWYQQKPGKAPKLLIYKTSNLHTGVPSRFSGSGSGTDFTFTISSLQPEDIATYYCQQGQSYPLTFGGGTKLEIKR | – | 4.47 nM | 0.00136 s⁻¹ | 305000 M⁻¹ s⁻¹ | – | – | – |
| humanized anti-TRPM4 antibody VH3 + VL3 (antibody, V domains shown, Full-length IgG) VH: QVQLQESGPGLVKPSQTLSLTCTVSGYSITSDYAWNWIRQHPGKGLQWMGYLSYSGVTSYNPSLKGRITISRDTSKNQFSLKLSSVTAADTAVYYCARKGTYYRYEGSYWYFDVWGQGTTVTVSS VL: DIQMTQSPSSLSASVGDRVTITCHANQNIDVWLSWYQQKPGNAPKLLIYKTSNLHTGVPSRFSGSGSGTDFTFTISSLQPEDIATYYCQQGQSYPLTFGGGTKLEIKR | – | 4.4 nM | 0.0018 s⁻¹ | 409000 M⁻¹ s⁻¹ | – | – | – |
| humanized anti-TRPM4 antibody VH3 + VL2 (antibody, V domains shown, Full-length IgG) VH: QVQLQESGPGLVKPSQTLSLTCTVSGYSITSDYAWNWIRQHPGKGLQWMGYLSYSGVTSYNPSLKGRITISRDTSKNQFSLKLSSVTAADTAVYYCARKGTYYRYEGSYWYFDVWGQGTTVTVSS VL: DIQMTQSPSSLSASVGDRVTITCHANQNIDVWLSWYQQKPGKAPKLLIYKTSNLHTGVPSRFSGSGSGTDFTLTISSLQPEDIATYYCQQGQSYPLTFGGGTKLEIKR | – | 4.53 nM | 0.00198 s⁻¹ | 438000 M⁻¹ s⁻¹ | – | – | – |
| humanized anti-TRPM4 antibody VH4 + VL2 (antibody, V domains shown, Full-length IgG) VH: QVQLQESGPGLVKPSQTLSLTCTVSGYSITSDYAWNWIRQHPGKGLQWMGYLSYSGVTSYNPSLKGRITISRDTSKNQFFLKLSSVTAADTAVYYCARKGTYYRYEGSYWYFDVWGQGTTVTVSS VL: DIQMTQSPSSLSASVGDRVTITCHANQNIDVWLSWYQQKPGKAPKLLIYKTSNLHTGVPSRFSGSGSGTDFTLTISSLQPEDIATYYCQQGQSYPLTFGGGTKLEIKR | – | 4.37 nM | 0.00132 s⁻¹ | 303000 M⁻¹ s⁻¹ | – | – | – |
| humanized anti-TRPM4 antibody VH2 + VL4 (antibody, V domains shown, Full-length IgG) VH: QVQLQESGPGLVKPSQTLSLTCTVSGYSITSDYAWNWIRQHPGKGLEWMGYLSYSGVTSYNPSLKGRVTISRDTSKNQFSLKLSSVTAADTAVYYCARKGTYYRYEGSYWYFDVWGQGTTVTVSS VL: DIQMTQSPSSLSASVGDRVTITCHANQNIDVWLSWYQQKPGNAPKLLIYKTSNLHTGVPSRFSGSGSGTDFTLTISSLQPEDIATYYCQQGQSYPLTFGGGTKLEIKR | – | 8.62 nM | 0.00185 s⁻¹ | 215000 M⁻¹ s⁻¹ | – | – | – |
| humanized anti-TRPM4 antibody VH3 + VL4 (antibody, V domains shown, Full-length IgG) VH: QVQLQESGPGLVKPSQTLSLTCTVSGYSITSDYAWNWIRQHPGKGLQWMGYLSYSGVTSYNPSLKGRITISRDTSKNQFSLKLSSVTAADTAVYYCARKGTYYRYEGSYWYFDVWGQGTTVTVSS VL: DIQMTQSPSSLSASVGDRVTITCHANQNIDVWLSWYQQKPGNAPKLLIYKTSNLHTGVPSRFSGSGSGTDFTLTISSLQPEDIATYYCQQGQSYPLTFGGGTKLEIKR | – | 2.22 nM | 0.00135 s⁻¹ | 608000 M⁻¹ s⁻¹ | – | – | – |
| humanized anti-TRPM4 antibody VH4 + VL4 (antibody, V domains shown, Full-length IgG) VH: QVQLQESGPGLVKPSQTLSLTCTVSGYSITSDYAWNWIRQHPGKGLQWMGYLSYSGVTSYNPSLKGRITISRDTSKNQFFLKLSSVTAADTAVYYCARKGTYYRYEGSYWYFDVWGQGTTVTVSS VL: DIQMTQSPSSLSASVGDRVTITCHANQNIDVWLSWYQQKPGNAPKLLIYKTSNLHTGVPSRFSGSGSGTDFTLTISSLQPEDIATYYCQQGQSYPLTFGGGTKLEIKR | – | 4.43 nM | 0.00201 s⁻¹ | 454000 M⁻¹ s⁻¹ | – | – | – |
| humanized anti-TRPM4 antibody VH2 + VL3 (antibody, V domains shown, Full-length IgG) VH: QVQLQESGPGLVKPSQTLSLTCTVSGYSITSDYAWNWIRQHPGKGLEWMGYLSYSGVTSYNPSLKGRVTISRDTSKNQFSLKLSSVTAADTAVYYCARKGTYYRYEGSYWYFDVWGQGTTVTVSS VL: DIQMTQSPSSLSASVGDRVTITCHANQNIDVWLSWYQQKPGNAPKLLIYKTSNLHTGVPSRFSGSGSGTDFTFTISSLQPEDIATYYCQQGQSYPLTFGGGTKLEIKR | – | 10.8 nM | 0.00219 s⁻¹ | 203000 M⁻¹ s⁻¹ | – | – | – |
| humanized anti-TRPM4 antibody clone A4 (VH1 + VL3) (antibody, V domains shown, Full-length IgG, IgG1 heavy chain; also called VH1 + VL3 (A4)) VH: QVQLQESGPGLVKPSQTLSLTCTVSGYSITSDYAWNWIRQHPGKGLEWIGYLSYSGVTSYNPSLKGRVTISVDTSKNQFSLKLSSVTAADTAVYYCARKGTYYRYEGSYWYFDVWGQGTTVTVSS VL: DIQMTQSPSSLSASVGDRVTITCHANQNIDVWLSWYQQKPGNAPKLLIYKTSNLHTGVPSRFSGSGSGTDFTFTISSLQPEDIATYYCQQGQSYPLTFGGGTKLEIKR | binds | 7 nM | 0.00177 s⁻¹ | 252000 M⁻¹ s⁻¹ | 3.18 nM | 0.00062 s⁻¹ | 195000 M⁻¹ s⁻¹ |
| humanized anti-TRPM4 antibody clone A7 (VH2 + VL2) (antibody, V domains shown, Full-length IgG, IgG1 heavy chain; also called VH2 + VL2 (A7)) VH: QVQLQESGPGLVKPSQTLSLTCTVSGYSITSDYAWNWIRQHPGKGLEWMGYLSYSGVTSYNPSLKGRVTISRDTSKNQFSLKLSSVTAADTAVYYCARKGTYYRYEGSYWYFDVWGQGTTVTVSS VL: DIQMTQSPSSLSASVGDRVTITCHANQNIDVWLSWYQQKPGKAPKLLIYKTSNLHTGVPSRFSGSGSGTDFTLTISSLQPEDIATYYCQQGQSYPLTFGGGTKLEIKR | binds | 11.5 nM | 0.00295 s⁻¹ | 256000 M⁻¹ s⁻¹ | – | – | – |
| humanized anti-TRPM4 antibody clone A5 (VH1 + VL4) (antibody, V domains shown, Full-length IgG, IgG1 heavy chain; also called VH1 + VL4 (A5)) VH: QVQLQESGPGLVKPSQTLSLTCTVSGYSITSDYAWNWIRQHPGKGLEWIGYLSYSGVTSYNPSLKGRVTISVDTSKNQFSLKLSSVTAADTAVYYCARKGTYYRYEGSYWYFDVWGQGTTVTVSS VL: DIQMTQSPSSLSASVGDRVTITCHANQNIDVWLSWYQQKPGNAPKLLIYKTSNLHTGVPSRFSGSGSGTDFTLTISSLQPEDIATYYCQQGQSYPLTFGGGTKLEIKR | binds | 9.96 nM | 0.00217 s⁻¹ | 217000 M⁻¹ s⁻¹ | – | – | – |
| humanized anti-TRPM4 antibody clone A6 (VH2 + VL1) (antibody, V domains shown, Full-length IgG, IgG1 heavy chain; also called VH2 + VL1 (A6)) VH: QVQLQESGPGLVKPSQTLSLTCTVSGYSITSDYAWNWIRQHPGKGLEWMGYLSYSGVTSYNPSLKGRVTISRDTSKNQFSLKLSSVTAADTAVYYCARKGTYYRYEGSYWYFDVWGQGTTVTVSS VL: DIQMTQSPSSLSASVGDRVTITCHANQNIDVWLSWYQQKPGKAPKLLIYKTSNLHTGVPSRFSGSGSGTDFTFTISSLQPEDIATYYCQQGQSYPLTFGGGTKLEIKR | binds | 10.6 nM | 0.00195 s⁻¹ | 184000 M⁻¹ s⁻¹ | 4.02 nM | 0.000662 s⁻¹ | 165000 M⁻¹ s⁻¹ |
